The record followed here is the supplement of paper PMC12042874.

± gives the uncertainty stated by the source.

The nature of this data set: amyloid nucleation score (Sup35N fusion, yeast selection) (log enrichment); library NNK1; higher = more nucleation; inactive = no reads after selection. In outline: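 Nucleation score: DiMSum log enrichment of output over input reads, centred on the mode score of non-aggregating sequences. Only sequences with at least 100 input reads were kept. Reads came from Illumina sequencing of plasmid inserts before and after 7 days of growth at 30°C without adenine and uracil, in psi-negative yeast expressing Sup35N fused to peptides of 20 random codons after 24 hours of induction with 100 μM copper sulfate.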
With CLCVGDDGGADWNKVRVITS, the amyloid nucleation score is 0.18 ± 0.61. Next, FSSGVILSGRRRSLK: -0.437 ± 0.49; ELRCTTWSRSPSLQVALVDL: -0.499 ± 0.59. Next, SFVCCFRLPWMGGTKNPMHV: 3.55 ± 0.19; ISNGFQSV: -0.027 ± 0.81; FSLFTWSWFR: 0.625 ± 0.42. In turn, KRVSRNPNPGVV came in with an amyloid nucleation score of -0.076 ± 0.56. CWKLETYTSTDSQVGQANLK returned an amyloid nucleation score of -1.28 ± 0.96. Under MVIRYFCQESA stands -0.799 ± 1.1; under YDWAVSAS, -0.364 ± 0.61.

The substance WWHSL had an amyloid nucleation score of 2.01 ± 0.62. Under GYSLYRM stands 6.746 ± 0.044. Next, CHELLALDLLSMRNS: 0.416 ± 0.55; DYKFRDRL: 0.364 ± 0.32; TFGSETESMLNTKYSSGCVG: 0.067 ± 0.55. Under LNCRGVLDRTKSRVSHNNES stands 3.38 ± 0.18; under GHRINAYVVVVHLGSSGGGW, 2.07 ± 0.29. TRMLLMIL showed an amyloid nucleation score of -0.921 ± 2.4. Next, RNSSGRGERLLVQYAQKKKR: -0.136 ± 0.41; TITHGYLRLRYCVR: -0.292 ± 0.44; RFARHCSRIS: 0.769 ± 0.36. Under KWGVCVLTHLGRYWLLLGCG stands -0.145 ± 0.66. Under EMEVLSVPSVLLVIVVR stands -1.04 ± 0.66; under YSAVISHDVGLFVYLTETET, -0.363 ± 0.56; under RGGGAEKLLQSTCNSYVVWL, 3.66 ± 0.061.

DVRGRHRCRFGSQQTKRQS: the amyloid nucleation score came out at 0.586 ± 0.8. Under SIIIGMRLCHHVRSAYTNEL stands 3.21 ± 0.18; under WVKCRDWYSILF, 5.19 ± 0.089. Next, SYSYRLQPFIAMLLGSFL: -1.04 ± 2.7. In turn, FLMLRAYESMARFYDVLWIG returned an amyloid nucleation score of 0.088 ± 0.37.

As for CTFKAWRLYSVNKDSRIVLK, the amyloid nucleation score is -0.576 ± 1.1.

As for INELNTLLGI, the amyloid nucleation score was found to be 0.498 ± 0.97.

Substance FSTHSIWSLRVSNSVSLFNE gave an amyloid nucleation score of 0.178 ± 0.66. Under HGYHVHDGALLNQHNIS stands 0.004 ± 0.57. Next, KAVFDNLLTCPILVIGSTPA: -0.956 ± 0.93; LMHRFPSINRLHTAPMPRAT: 0.58 ± 1.1. In turn, RSDYVNDGEYWAFRDRMMNM yielded an amyloid nucleation score of -0.126 ± 0.35. Next, QNSENMFDINVLTWGCHMAM: “inactive”; NCCGSLETSSVSVVYLMWGW: 5.917 ± 0.05; ADANCFRGWSRHHRTITQLR: 0.296 ± 0.64. Under RNHDANFPCRVDGPLQSTVR stands 0.135 ± 0.4; under TRFNFMGLYNLRMVN, -0.777 ± 1.2; under LNFCSVRVMEEISMVWCMVF, 4.24 ± 0.11. Under TNGLCFI stands -0.833 ± 0.74. Turning to LTDLLMFIVPWDNAQRLVCF, the amyloid nucleation score stood at 0.518 ± 0.89. Substance RLLRPFGWLANSRLTTVWFH came in with an amyloid nucleation score of -0.122 ± 0.68. Under FFYLIISGMVMLSNPLSRVS stands “inactive”.

Consider AIQYILEQLEQSRRWGISVH, for which the amyloid nucleation score entry was “inactive”. As to CDNQVSGLNGS, the amyloid nucleation score entry was “inactive”. Under IVDYVGCLRHYECYGWQPWG stands 0.225 ± 0.51. For the substance DILCASPTLLAE, the amyloid nucleation score is 0.161 ± 0.49. The substance DKERSGTKQYNSYG showed an amyloid nucleation score of -0.039 ± 0.73. Next, PFFWFH: -0.482 ± 0.26.

In turn, FEQTIISLVSGYFQSSDYWS returned an amyloid nucleation score of -0.596 ± 0.78.

YNPNGLTMGCGHKYTVEHTT registered an amyloid nucleation score of 0.128 ± 0.47. Next, NGYWLSFWTSRY: 1.63 ± 0.46. FFASCIRYDSRNCIGNLQLG had an amyloid nucleation score of 0.149 ± 0.64. For FDITRGRSTSYLIERRRTWG, the amyloid nucleation score was 0.79 ± 0.82.

GTGCFRCTVSTVGSVFIRDE yielded an amyloid nucleation score of -0.27 ± 0.64.

SSFARL displayed an amyloid nucleation score of 1.12 ± 0.55.

Turning to NCPFEW, the amyloid nucleation score was -0.116 ± 0.55. LPCHLPRLVPKGYPSFTLYK yielded an amyloid nucleation score of -0.672 ± 0.4. Under PYSWVEKASY stands -0.322 ± 0.78; under IRKHLDPGPSYRSSYLRGW, “inactive”; under SLVRMLRHLRMDEKFLLIRY, 0.268 ± 0.53. Next, GPDRLMDILAMPGGYSMLSM: 1.03 ± 0.54.

On to MRNVTFTGLMLDSDWNVH, for which the amyloid nucleation score is -0.338 ± 1.1. Under ETITKVVQQLSRLDKLSTYW stands 1.53 ± 0.26; under NLICDLGNSVTMSVRDDQTV, -0.013 ± 0.36. In the case of VRLFLCFARSMDVRYFILVG, the amyloid nucleation score is 0.459 ± 0.57. On to VLLSQIVGIWAL, for which the amyloid nucleation score is -0.642 ± 0.67.

Turning to ENRQIWCANGNVVGGTALGV, the amyloid nucleation score came out at 0.734 ± 0.69. SFCLFNVIYQFIGKRCPNSG registered an amyloid nucleation score of 3.82 ± 0.1.

Substance LYGPQSPGRSPVSTFGRGRF yielded an amyloid nucleation score of 0.321 ± 0.4.

With RRRHWVSSAGGKRRHLVFCA, the amyloid nucleation score is 1.22 ± 0.46. Substance GSDWTRMMNVLAGGGGVGSE returned an amyloid nucleation score of -0.484 ± 0.58. Consider RFFNTRSGKSWPLKYLTEFF, for which the amyloid nucleation score was 0.042 ± 0.34. Under IPTLRSPVNRWPRITMKVWL stands -0.161 ± 0.62; under TGTHDVVVAVGYR, -0.658 ± 0.54.

For KWVIGRTVLGRADVRWSSGR, the amyloid nucleation score was 1.58 ± 0.46.

As to HYEVYAARVPNHHAKDIFWV, the amyloid nucleation score is -0.024 ± 0.93. Next, LMWKNSGNYKLRCYRVV: -0.065 ± 0.21; VNGTG: -0.252 ± 0.97; SAAYQALLTNSYFSLFDVSW: 0.823 ± 0.21. Take CQVPSGESNDSPVLRHI: the amyloid nucleation score was -0.138 ± 0.43. Next, TDYRFTRVWRRGVARS: 0.707 ± 0.55. As for INFVLMIRMIVSFMNIGRIG, the amyloid nucleation score was -0.527 ± 1.6.

As for VYFRCTWAISMFFYMSNAGW, the amyloid nucleation score is 1.35 ± 0.21.

VRVMILHLSDILYYLWYGTI yielded an amyloid nucleation score of 5.22 ± 0.078. Take YCVIHSIRLGRIHLDCFWDF: the amyloid nucleation score entry is “inactive”.

SGGPGDAGRLRQ yielded an amyloid nucleation score of -0.005 ± 0.91. Next, TMFIFCWKTGVCLYCNLFTS: -0.591 ± 0.4; WAMDKGWKVNHCNEAPMIHC: -0.053 ± 0.37. Under FQSDYRRRMFVMSD stands -1.03 ± 1.4.

Substance MYPRSCIHVMCFTVVKASVG returned an amyloid nucleation score of -1.26 ± 0.74.

For GFTMSTEGVS, the amyloid nucleation score worked out at 0.781 ± 0.55. Next, IILCNRPMSYLRYNGARFLA: 0.948 ± 0.36; YLVVPERLVANRMVS: -1.68 ± 2.4. Under FPENGLRSFSCPLVH stands 0.382 ± 0.66; under FYLSYVIIYSSSIRCLSSCR, 0.388 ± 0.71.

VTKFLWYIPGPKIGRFYLSN showed an amyloid nucleation score of 0.43 ± 0.38. Turning to FVQFTCSIRDYCA, the amyloid nucleation score was found to be 0.033 ± 0.97. Next, REVSVVNLYRCFDGIRSKLT: 0.219 ± 0.23; SSVSPIHHRLYKTETPMWLT: -0.369 ± 0.58.

For KGTAPGNSGGERVVMNSHDL, the amyloid nucleation score amounted to 2.61 ± 0.22. With MLDFTIQGLKSCWISVSLFF, the amyloid nucleation score result is “inactive”.

The substance SSMNSWTDFFHFCST gave an amyloid nucleation score of 0.032 ± 0.97. As to YSITIRITEYNGVVSTGLHL, the amyloid nucleation score is 0.325 ± 0.6. Next, CPGFFILVQCIVYMDTDCGF: 3.81 ± 0.095; IRCDKLISNSNMLGDKLTL: “inactive”. Next, DAEFRHGAIIGLMVGGVVIA: 3.45 ± 0.22. YTRFVKGYTRNRFSRDTSAV: the amyloid nucleation score was -0.084 ± 0.28. For the substance RVCKFKFYQFSSSKC, the amyloid nucleation score came to 3.75 ± 0.067. In turn, LLNAAHIEGT gave an amyloid nucleation score of 0.064 ± 0.59.

The substance RSQKLGHIGRDTLQWGLYCS returned an amyloid nucleation score of -0.024 ± 0.38. GSMMWSMTADKLKFAGSVVC: the amyloid nucleation score was determined as 0.889 ± 0.54. Under ASVVSCQQSYLRWQEIL stands -0.316 ± 0.74. Substance IVTALEGYRDYFSEPCIFFM came in with an amyloid nucleation score of -0.176 ± 0.32.

The substance SVNWRYRALFDVRPAPLASQ registered an amyloid nucleation score of -1.74 ± 2.4. Next, LGRKKGFMTYSGLYYVRLWA: -0.81 ± 1.4; SVTERCKLQSHHDMVGGM: 3.37 ± 0.13. NIKDRILYNVYMRGMCIYCL displayed an amyloid nucleation score of 6.137 ± 0.053. Consider IDCIWGLCNWFHSLVMCVHS, for which the amyloid nucleation score entry was “inactive”.

The substance MMLSLISVQV registered an amyloid nucleation score of 0.379 ± 0.68. In turn, ICNQCNNSGTQLYCIKLYMR yielded an amyloid nucleation score of 6.099 ± 0.045. Under FLFRFQKCLFNCFVLGLVSR stands -0.206 ± 0.53; under VVWWGEQHGLYSYFGHGIGI, 0.968 ± 0.63. VWLEYECKVLVLHYCFCRVR had an amyloid nucleation score of 0.72 ± 0.61. Under CGFSDNGTCKND stands -0.059 ± 0.28; under GFGSELRYYYMSRGMYRIRP, 0.089 ± 0.88. Under CGYSKVPMPCALAECGGRPR stands 0.054 ± 0.45; under THTYGGDG, -0.096 ± 0.74; under IIAIPHLTLSWTNLSMGQG, 3.76 ± 0.1. Under NPLHTMFTLYEIRQWRLF stands -0.048 ± 0.3; under FYTLKFMVKALTVKKGVCVV, “inactive”. Substance QRHSLNDNCRCLRYPQHSPN displayed an amyloid nucleation score of 1.07 ± 0.73. Under LWFINVLNK stands 5.103 ± 0.049. Under LLLTWFFPQHASRVNMSYSS stands 0.024 ± 0.39.
